5 molecules from article PMC8080530, “Glucocorticoid receptor Thr524 phosphorylation by MINK1 induces interactions with 14-3-3 protein regulators” (The Journal of Biological Chemistry, 2021) can be followed below.

No end group written: not given here. *: point of attachment. FITC = O=C1OC2(c3ccc(O)cc3Oc3cc(O)ccc32)c2ccc(NC(=S)*)cc21

The term Kd denotes a measure of binding affinity in units of concentration.

Assay [1] deals with GFP-GR T524A S617A, full-length GR double mutant (human) (UniProt P04150). Kind of assay: co-IP; GFP-Trap agarose beads on RIPA lysates of transfected U2OS or HEK293 cells stimulated with forskolin or calyculin A; blot with anti-pan 14-3-3 antibody.
For assay [2], the target named is human 14-3-3ζ, full length, 6His-Linker-h14-3-3 (human) (UniProt P63104). Kind of assay: SPR; Biacore 3000; 6His-tagged 14-3-3 immobilised on an NTA chip (2000 RU 14-3-3ζ, 4000 RU 14-3-3σ); peptides injected in HBS P+ buffer with 1 or 3% DMSO, 20 μl/min; Hill fit; triplicates. Background: In SPR one partner is held on a chip, and binding of the other changes the refractive index at the surface.

In assay [3] the target is GR_pT524-pT562, FITC-labelled 51-mer doubly phosphorylated peptide with the native sequence as a linker (human) (UniProt P04150). Description: fluorescence polarisation; FITC-labelled peptide at 60 nM (monophosphorylated) or 10 nM (doubly phosphorylated) titrated with 14-3-3ζ or 14-3-3σ in dilution series from 300 μM or 150 μM; 30 min at RT; 384-well plate; Hill fit; triplicates. (In general: In fluorescence polarisation assays a small probe gives low polarisation when free and higher when bound to something large.)

The target of assay [4] is GR_pT524-pS617 with P526 replaced by alanine (alanine scan) (human) (UniProt P04150). Described as above.
Assay [5] has as its target GR_pT524-pS617 with pS617 replaced by alanine (alanine scan) (human) (UniProt P04150). The assay is described as above.
The target of assay [6] is GR_pT524-pS617 with pT524 replaced by alanine (alanine scan) (human) (UniProt P04150). The description is as above.
The target of assay [7] is GR_pT524-pS617 with R614 replaced by alanine (alanine scan) (human) (UniProt P04150). The description is as above.
In assay [8] the target is GR_pT524-pS617 with K518 replaced by alanine (alanine scan) (human) (UniProt P04150). The assay is described as above.
The target in assay [9] is GR_pS524-pS617, FITC-labelled diphosphoserine analogue of GR_pT524-pS617 (human) (UniProt P04150). The assay is described as above.
Assay [10] deals with GR_pS134-pT524, FITC-labelled 31-mer doubly phosphorylated peptide (human) (UniProt P04150). Described as above.
For assay [11], the target named is GR_pS134, FITC-labelled 13-mer phosphopeptide (human) (UniProt P04150). The description is as above.
The target in assay [12] is GR_pT524-pS617, FITC-labelled 31-mer doubly phosphorylated peptide (human) (UniProt P04150). Described as above.
Assay [13] has as its target T1, human 14-3-3ζ, full length, 6His-Linker-h14-3-3 (human, UniProt P63104 1-245).
T1 chain: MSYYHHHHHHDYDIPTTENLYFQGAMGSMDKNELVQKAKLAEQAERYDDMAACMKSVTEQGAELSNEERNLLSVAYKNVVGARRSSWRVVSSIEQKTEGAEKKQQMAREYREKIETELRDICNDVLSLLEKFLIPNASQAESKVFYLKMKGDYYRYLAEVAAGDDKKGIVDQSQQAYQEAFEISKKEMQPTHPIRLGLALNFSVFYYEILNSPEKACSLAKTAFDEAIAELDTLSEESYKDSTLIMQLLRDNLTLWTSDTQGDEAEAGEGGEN
Kind of assay: FP.

Assay [14] addresses T1, human 14-3-3ζ, full length, …. Description: SPR.

GR_pT524-pT562, FITC-labelled 51-mer doubly phosphorylated peptide with the native sequence as a linker (human), sequence (P04150 518-568): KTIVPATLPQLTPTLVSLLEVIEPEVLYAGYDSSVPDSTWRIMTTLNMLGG
GFP-GR T524A S617A, full-length GR double mutant (human), sequence (P04150 whole entry T524A/S617A): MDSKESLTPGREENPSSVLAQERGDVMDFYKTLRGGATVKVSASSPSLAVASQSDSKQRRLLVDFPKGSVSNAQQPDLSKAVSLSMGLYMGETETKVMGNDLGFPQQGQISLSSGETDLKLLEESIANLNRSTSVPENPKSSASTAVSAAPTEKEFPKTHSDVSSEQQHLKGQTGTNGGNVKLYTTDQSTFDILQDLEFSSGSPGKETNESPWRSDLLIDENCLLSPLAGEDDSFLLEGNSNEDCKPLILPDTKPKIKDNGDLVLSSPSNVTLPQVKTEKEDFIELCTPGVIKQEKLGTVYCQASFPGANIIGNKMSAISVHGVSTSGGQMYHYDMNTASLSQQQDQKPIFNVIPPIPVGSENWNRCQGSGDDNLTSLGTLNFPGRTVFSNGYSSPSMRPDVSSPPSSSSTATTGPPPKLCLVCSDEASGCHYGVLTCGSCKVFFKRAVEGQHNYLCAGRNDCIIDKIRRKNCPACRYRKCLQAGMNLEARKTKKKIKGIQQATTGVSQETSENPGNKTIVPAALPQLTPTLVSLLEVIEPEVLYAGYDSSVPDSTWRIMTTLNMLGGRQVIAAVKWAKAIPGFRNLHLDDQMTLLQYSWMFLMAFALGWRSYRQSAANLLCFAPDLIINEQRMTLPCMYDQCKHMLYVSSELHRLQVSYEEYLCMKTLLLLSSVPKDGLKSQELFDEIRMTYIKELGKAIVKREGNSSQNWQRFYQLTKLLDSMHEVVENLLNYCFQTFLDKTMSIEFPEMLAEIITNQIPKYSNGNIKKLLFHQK

Consider “14-3-3 proteins, endogenous (detected with anti-pan 14-3-3 antibody) (from UniProt P63104 1-245) (natural protein)”, for which the decrease of the interaction against the WT GR in [1] worked out at 35%.
With “GR_pT524-pT562, 51-mer doubly phosphorylated peptide used for SPR (from UniProt P04150 518-568)”, the Kd in assay [2] amounted to 15000 nM.
As to “human 14-3-3ζ, full length, 6His-Linker-h14-3-3 (from UniProt P63104 1-245) (natural protein)”, the Kd in assay [3] came to 23000 nM; in [4] it was 1200 nM; in assay [5], 1300 nM; in assay [6], 120000 nM; in assay [7], 220 nM; in [8], 110 nM. The dissociation constant Kd in [9] was found to be 140 nM; in assay [10], 550 nM; in [11] it was 90000 nM; in [12] it was 18 nM.

B1: GR_pS83-pT524, FITC-labelled 31-mer doubly phosphorylated peptide (peptide)
peptide: {FITC}-DLSKAVSLSMGLYGGGGGKTIVPATLPQLTP
modifications: also: phosphoserine at S83 and phosphothreonine at T524, places in chain not given here
Take B1: binding in assay [13] was put at a Kd of 900 nM.

B2: GR_pT524-pS617, 31-mer doubly phosphorylated peptide used for SPR and crystallography (peptide)
peptide: KTIVPATLPQLTPGGGGGRSYRQSSANLLCF
modifications: also: phosphothreonine at T524 and phosphoserine at S617, places in chain not given here
The molecule B2 had a Kd in [14] of 30 nM.
